Experimental data: patent US20200199204A1 (UNITED STATES OF AMERICA AS REPRESENTED BY THE SECRETARY …, published 2020)

Assays:
Test in all cases: cell-based or functional assay
[1] = biological target: HIV-1 Env of UG037.8 (HIV-1)
[2] = biological target: HIV-1 Env of CNE3 (HIV-1)
[3] = biological target: HIV-1 Env of 6535.3 (HIV-1)
[4] = biological target: HIV-1 Env of QH0692.42 (HIV-1)
[5] = biological target: HIV-1 Env of ZM197.7 (HIV-1)
[6] = biological target: HIV-1 Env of TH976.17 (HIV-1)
[7] = biological target: HIV-1 Env of ZM109.4 (HIV-1)
[8] = biological target: HIV-1 Env of TRO.11 (HIV-1)
[9] = biological target: HIV-1 Env of SC422.8 (HIV-1)
[10] = biological target: HIV-1 Env of C1080.c3 (HIV-1)
[11] = biological target: HIV-1 Env of Q842.d12 (HIV-1)
[12] = biological target: HIV-1 Env of DU156.12 (HIV-1)
[13] = biological target: HIV-1 Env of CAP45.G3 (HIV-1)
[14] = biological target: HIV-1 Env of Q769.d22 (HIV-1)
[15] = biological target: HIV-1 Env of 0260.v5.c36 (HIV-1)
[16] = biological target: HIV-1 Env of RHPA.7 (HIV-1)
[17] = biological target: HIV-1 Env of CAP210.E8 (HIV-1)
[18] = biological target: HIV-1 Env of WITO.33 (HIV-1)
[19] = biological target: HIV-1 Env of DU422.01 (HIV-1)
[20] = biological target: HIV-1 Env of CM244.ec1 (HIV-1)
[21] = biological target: HIV-1 Env of Q259.d2.17 (HIV-1)
[22] = biological target: HIV-1 Env of TRJO.58 (HIV-1)
[23] = biological target: HIV-1 Env of RW020.2 (HIV-1)
[24] = biological target: HIV-1 Env of MB201 (HIV-1)
[25] = biological target: HIV-1 Env of ZM214.15 (HIV-1)
[26] = biological target: HIV-1 Env of 96ZM651.02 (HIV-1)
[27] = biological target: HIV-1 Env of MB539.2B7 (HIV-1)
[28] = biological target: HIV-1 Env of THRO.18 (HIV-1)
[29] = biological target: HIV-1 Env of Q23.17 (HIV-1)
[30] = biological target: HIV-1 Env of CAAN.A2 (HIV-1)
[31] = biological target: HIV-1 Env of ZM135.10a (HIV-1)
[32] = biological target: HIV-1 Env of PVO.04 (HIV-1)
[33] = biological target: HIV-1 Env of BG505.w6m (HIV-1)
[34] = biological target: HIV-1 Env of CAP256.SU (HIV-1)
[35] = biological target: HIV-1 Env of ZM249.1 (HIV-1)
[36] = biological target: HIV-1 Env of AC10.29 (HIV-1)
[37] = biological target: HIV-1 Env of 6405.v4.c34 (HIV-1)
[38] = biological target: HIV-1 Env of KER2008.12 (HIV-1)
[39] = biological target: HIV-1 Env of REJO.67 (HIV-1)
[40] = biological target: HIV-1 Env of DU172.17 (HIV-1)
[41] = biological target: HIV-1 Env of KER2018.11 (HIV-1)
[42] = biological target: HIV-1 Env of CAP256.PI (HIV-1)
[43] = biological target: HIV-1 Env of Q168.a2 (HIV-1)
[44] = biological target: HIV-1 Env of ZM53.12 (HIV-1)
[45] = biological target: HIV-1 Env of ZM233.6 (HIV-1)
[46] = biological target: HIV-1 Env of 3016.V5.c36 (HIV-1)
[47] = biological target: HIV-1 Env of Q461.e2 (HIV-1)
[48] = biological target: HIV-1 Env of CAP244.D3 (HIV-1)

B1: CAP256-VRC26.27 (antibody, V domains shown)
VH: QKQLVESGGGVVQPGRSLTLSCAASQFPFSHYGMHWVRQAPGKGLEWVASITNDGTKKYHGESVWDRFRISRDNSKNTLFLQMNSLRAEDTALYFCVRDQREDECEEWWSDYYDFGKELPCRKFRGLGLAGIFDIWGHGTMVIVSS
VL: QSVLTQPPSVSAAPGQKVSISCSGNNSNIGNNFISWFQQFPGTAPKPLIYETYRRHSGIPDRFSGSKSGTSATLAITGLQTGDEADYYCATWGVRQGVGALFGTGTKVTVLG
- IC50 (neutralization, TZM-bl) [1]: > 50 µg/mL
- IC50 (neutralization, TZM-bl) [2]: > 50 µg/mL
- IC50 (neutralization, TZM-bl) [3]: > 50 µg/mL
- IC50 (neutralization, TZM-bl) [4]: > 50 µg/mL
- IC50 (neutralization, TZM-bl) [5]: 0.004 µg/mL
- IC50 (neutralization, TZM-bl) [6]: > 50 µg/mL
- IC50 (neutralization, TZM-bl) [7]: 0.027 µg/mL
- IC50 (neutralization, TZM-bl) [8]: > 50 µg/mL
- IC50 (neutralization, TZM-bl) [9]: 4.86 µg/mL
- IC50 (neutralization, TZM-bl) [10]: 0.149 µg/mL
- IC50 (neutralization, TZM-bl) [11]: 10.6 µg/mL
- IC50 (neutralization, TZM-bl) [12]: 0.006 µg/mL
- IC50 (neutralization, TZM-bl) [13]: 0.025 µg/mL
- IC50 (neutralization, TZM-bl) [14]: > 50 µg/mL
- IC50 (neutralization, TZM-bl) [15]: 2.1 µg/mL
- IC50 (neutralization, TZM-bl) [16]: > 50 µg/mL
- IC50 (neutralization, TZM-bl) [17]: 0.002 µg/mL
- IC50 (neutralization, TZM-bl) [18]: > 50 µg/mL
- IC50 (neutralization, TZM-bl) [19]: 0.015 µg/mL
- IC50 (neutralization, TZM-bl) [20]: 0.056 µg/mL
- IC50 (neutralization, TZM-bl) [21]: 0.005 µg/mL
- IC50 (neutralization, TZM-bl) [22]: > 50 µg/mL
- IC50 (neutralization, TZM-bl) [23]: > 50 µg/mL
- IC50 (neutralization, TZM-bl) [24]: > 50 µg/mL
- IC50 (neutralization, TZM-bl) [25]: 3.86 µg/mL
- IC50 (neutralization, TZM-bl) [26]: 0.047 µg/mL
- IC50 (neutralization, TZM-bl) [27]: 1.15 µg/mL
- IC50 (neutralization, TZM-bl) [28]: 1.23 µg/mL
- IC50 (neutralization, TZM-bl) [29]: > 50 µg/mL
- IC50 (neutralization, TZM-bl) [30]: > 50 µg/mL
- IC50 (neutralization, TZM-bl) [31]: > 50 µg/mL
- IC50 (neutralization, TZM-bl) [32]: 0.371 µg/mL
- IC50 (neutralization, TZM-bl) [33]: 0.102 µg/mL
- IC50 (neutralization, TZM-bl) [34]: < 0.0006 µg/mL
- IC50 (neutralization, TZM-bl) [35]: 0.004 µg/mL
- IC50 (neutralization, TZM-bl) [36]: > 50 µg/mL
- IC50 (neutralization, TZM-bl) [37]: > 50 µg/mL
- IC50 (neutralization, TZM-bl) [38]: 11.3 µg/mL
- IC50 (neutralization, TZM-bl) [39]: > 50 µg/mL
- IC50 (neutralization, TZM-bl) [40]: 4.36 µg/mL
- IC50 (neutralization, TZM-bl) [41]: 0.001 µg/mL
- IC50 (neutralization, TZM-bl) [42]: > 50 µg/mL
- IC50 (neutralization, TZM-bl) [43]: 0.003 µg/mL
- IC50 (neutralization, TZM-bl) [44]: < 0.0006 µg/mL
- IC50 (neutralization, TZM-bl) [45]: < 0.0006 µg/mL
- IC50 (neutralization, TZM-bl) [46]: 0.006 µg/mL
- IC50 (neutralization, TZM-bl) [47]: 0.014 µg/mL
- IC50 (neutralization, TZM-bl) [48]: > 50 µg/mL
